The text below walks through data of publication doi:10.1101/2022.02.20.481182 (bioRxiv, 2022).

The labels stand for the following.
B1: BRPF2 bromodomain, wild-type, N-terminal His6-tagged (domain or fragment)
chain: EQVAMELRLTPLTVLLRSVLDQLQDKDPARIFAQPVSLKEVPDYLDHIKHPMDFATMRKRLEAQGYKNLHEFEEDFDLIIDNCMKYNARDTVFYRAAVRLRDQGGVVLRQARREVDSIGLEEASGMHLPERPA

What all share (test): ITC
(In general: ITC needs no label: the signal is the heat of the interaction.)

Assay [1] addresses histone H4K5acK8ac (1-15) peptide (UniProt P62805 2-16, acetyl-lysine at K5 and K8).
The target of assay [2] is histone H4K8acK12ac (1-15) peptide (UniProt P62805 2-16, acetyl-lysine at K8 and K12).
The target of assay [3] is histone H4K5acK12ac (1-15) peptide (UniProt P62805 2-16, acetyl-lysine at K5 and K12).
Assay [4] addresses histone H4K8ac (1-15) peptide (UniProt P62805 2-16, acetyl-lysine at K8).
In assay [5] the target is histone H4K5ac (1-15) peptide (UniProt P62805 2-16, acetyl-lysine at K5).
Assay [6] deals with histone H4K12ac (1-15) peptide (UniProt P62805 2-16, acetyl-lysine at K12).
The target of assay [7] is B1.

No end group written: not given here.

For B1, the equilibrium dissociation constant (Kd) was 28.5 ± 1.6 µM in assay [1]; 44.7 ± 3.5 µM in assay [2]; 3.2 ± 0.1 µM in assay [3]; 6.2 ± 0.6 µM in assay [4]; 3.5 ± 0.4 µM in assay [5]; 18.2 ± 1.2 µM in assay [6].

B2: BRPF2 bromodomain I586F mutant (domain or fragment)
chain: EQVAMELRLTPLTVLLRSVLDQLQDKDPARFFAQPVSLKEVPDYLDHIKHPMDFATMRKRLEAQGYKNLHEFEEDFDLIIDNCMKYNARDTVFYRAAVRLRDQGGVVLRQARREVDSIGLEEASGMHLPERPA
In the case of B2, the binding result in assay [5] was “binds”.

B3: histone H4K16ac (11-21) peptide (peptide, UniProt P62805 12-22, looked up)
peptide: GKGGAK(Ac)RHRKV
B3 came in with a Kd in assay [7] of 20.5 ± 1.4 µM.

B4: histone H3K14ac (9-19) peptide (peptide, UniProt P68431 10-20, looked up)
peptide: KSTGGK(Ac)APRKQ
In turn, B4 displayed a Kd in assay [7] of 10.2 ± 0.2 µM.

The Kd is the equilibrium constant for the complex coming apart.
